Laboratory results reported in US9885713B2, “Diagnosis and treatment of mycobacteria infections” (priority 2013, dated 2018).
“Also recorded” adds a separate entry of the source.

Assays:
[1] = test system: Mycobacterium avium subsp. paratuberculosis ATCC 19851; assay: Cell binding assay: protein immobilized on gold surface, capture by SEM and fluorescence microscopy; settings: for capture/binding of MAP cells (in words): protein immobilized on gold surface, 20 μg/ml (Gp6 also 40 μg/ml)
Description: (§1) In order to assess mycophage and mycophage RBPs for their use as probes of MAP infection, Gp-10 and Gp-6 were immobilized using an established protocol (Singh et. al. Biosens. Bioelect. 26 131 (2010) and used for the specific bacterial capture. Gold Surfaces were modified by cysteamine hydrochloride followed by activation using 2% gluteraldehyde. The recombinant proteins Gp-10, Gp-6 and Gp-31 were immobilized over the surfaces in order to capture the host bacteria Mycobacterium avium subsp. paratuberculosis ATCC 19851 and Mycobacterium smegmatis mc^2155. Bacterial capture was confirmed by fluorescence microscopy and Scanning Electron Microscopy (SEM). Nonspecific attachment was prevented by using bovine serum albumin (BSA) as the blocking layer. A negative control was run in parallel where a similar gold surface was treated with all reagents, but they were not exposed to the recombinant phage proteins.
(§2) Proteins were immobilized onto cysteamine covered gold surfaces that were activated with glutaraldehyde according to the previously described protocol where RBP samples were used instead of whole phage particles. Briefly, the gold substrates were fabricated using piranha cleaned silicon substrates by sputtering a 25 nm thick gold layer. The gold substrates were sonicated in acetone, isopropanol, ethanol and MilliQ (Millipore) water for 5 min each prior to their use (Branson Ultrasonics 1510, 40 kHz frequency). The gold substrates were incubated overnight at 40° C. in a 50 mM solution of cysteamine hydrochloride (Sigma-Aldrich). The cysteamine self assembled monolayer (SAM) substrates were modified by 2% glutaraldehyde (Sigma-Aldrich) for 1 hr at room temperature and washed twice in PBS. These modified substrates were incubated in a 20 μg/ml solution of Gp10 (or Gp6) in PBS overnight at 60° C. The negative control substrate was incubated in PBS only. To block nonspecific binding of bacteria, the substrates were incubated in 1 mg/ml of bovine serum albumin (Sigma-Aldrich) and were washed twice in PBS. The protein covered substrates were exposed to 10^9 cfu/ml of mycobacterial cells in PBS for 1 hr at room temperature. The immobilized surfaces were washed in 0.05 Tween 20 (Sigma-Aldrich) before analysis. For fluorescence microscopy, the bacterial cells were stained with 50 μM resazurin (Sigma-Aldrich) for 20 min before exposure to the substrates covered with the immobilized proteins.
(§3) Bacterial cell binding to the gold surface covered with the immobilized protein was assessed as described previously. Scanning electron microscopy (SEM) and fluorescent microscopy (FM) were used to estimate the number of bacterial cells bound to the surfaces. The samples were fixed with 2% glutaraldehyde for 2 hrs at room temperature followed by a gradient of ethanol from 50% to 100% before SEM. Finally the samples were dried by nitrogen gas. SEM imaging was performed using a Hitachi S-4800/LEO 1430 microscope. Cells were prestained using 50 μM of resazurin stain (Sigma-Aldrich) for the FM-based binding assay. An Olympus IX81 microscope equipped with a FITC filter and a Roper Scientific Cool-Snaps HQ CCD Camera were Used to Record the FM Images. ImageJ Software (USA NIH) was used to analyze the microscopy images. Average numbers of cells bound to the surface are indicated on the basis of the assessment of the cell number, fields of view, and using 8 gold covered chips per test.

[2] = test system: Mycobacterium smegmatis mc^2155; assay: as above; settings: for Capture efficiency of M. smegmatis cells: 20 μg/ml protein solution used for immobilization onto gold chip; for bacterial capture: gold surface, 20 μg/ml of RBP, Mycobacterium smegmatis mc^2155; for capture/binding of M. smegmatis cells (in words): protein immobilized on gold surface, 20 μg/ml
Description: as §1, §2, §3

E. coli = assay: Specificity control on protein covered gold surfaces (non-host bacteria); format: binding, Escherichia coli; settings: E. coli K12; protein covered gold surface
Description: (§4) The concentrations of the two RBPs of Gp6, Gp-10 and Gp31 were optimized for immobilization. […] The specificity of recognition by the RBPs was confirmed by exposing similar surfaces to E. coli EC12 and Campylobacter jejuni 11168H strains of non-host bacteria.
as §2, with “These modified substrates were incubated in a 20 μg/ml solution of Gp10 (or Gp6) in PBS overnight at 60° C. The negative control substrate was incubated in PBS only. To block nonspecific binding of bacteria, the substrates were incubated in 1 mg/ml of bovine serum albumin (Sigma-Aldrich) and were washed twice in PBS. The protein covered substrates were exposed to 10^9 cfu/ml of mycobacterial cells in PBS for 1 hr at room temperature. The immobilized surfaces were washed in 0.05 Tween 20 (Sigma-Aldrich) before analysis.” left out
(§5) Bacterial cell binding to the gold surface covered with the immobilized protein was assessed as described previously. […]

S. Typhimurium = assay: as above; format: binding, Salmonella enterica subsp. enterica sv. Typhimurium; settings: protein covered gold surface
Description: (§6) Mycobacteria phage L5 (HER-386) was obtained from the Felix D'Herelle Reference Centre for Bacterial Viruses (Laval University, Quebec, Canada). Mycobacterium marinum ATCC number 927, M. smegmatis mc^2 155 and M. avium subsp. paratuberculosis ATCC 19851 were used in the binding studies along with Campylobacter jejuni NCTC 11168H, Salmonella enterica subsp. enterica sv. Typhimurium ATCC 19585 and E. coli K-12. E. coli DH5α (Invitrogen) and E. coli BL21(DE3) (Invitrogen) were used for cloning and recombinant protein expression procedures, respectively. All mycobacterial strains were grown in ambient atmosphere. Middlebrook 7H9 (BD Biosciences) broth supplemented with oleic acid-albumin-dextrose catalase (BD Biosciences) and mycobactin J (Allied Monitor Inc.) was used to propagate M. smegmatis at 37° C. for 48 hrs as well as MAP cells at 37° C. for 10 days. […]
(§7) Proteins were immobilized onto cysteamine covered gold surfaces that were activated with glutaraldehyde according to the previously described protocol where RBP samples were used instead of whole phage particles. […] For fluorescence microscopy, the bacterial cells were stained with 50 μM resazurin (Sigma-Aldrich) for 20 min before exposure to the substrates covered with the immobilized proteins.
as §5

M. marinum cells = assay: Cell binding assay: protein immobilized on gold surface, capture by SEM and fluorescence microscopy; parameters: species or system Mycobacterium marinum
Description: as §6, §7, §5

[3] = test system: Campylobacter jejuni 11168H; assay: Specificity control on protein covered gold surfaces (non-host bacteria); format: binding; settings: C. jejuni; protein covered gold surface
Description: as §4
as §2, with “These modified substrates were incubated in a 20 μg/ml solution of Gp10 (or Gp6) in PBS overnight at 60° C. The negative control substrate was incubated in PBS only. To block nonspecific binding of bacteria, the substrates were incubated in 1 mg/ml of bovine serum albumin (Sigma-Aldrich) and were washed twice in PBS. The protein covered substrates were exposed to 10^9 cfu/ml of mycobacterial cells in PBS for 1 hr at room temperature. The immobilized surfaces were washed in 0.05 Tween 20 (Sigma-Aldrich) before analysis.” left out
as §5

[4] = biological target: T1, peptidoglycan from Bacillus subtilis (Mycobacterium phage L5, UniProt Q05285, I224V/T32I); assay: Peptidoglycan binding assay
T1 construct: pET-30a(+) vector-encoded N-terminal leader (additional residues up to the EcoRI site) (N); made in house; host or cells: E. coli BL21(DE3)
Method: Dehydrated peptidoglycan from Bacillus subtilis (Sigma-Aldrich) was suspended in water to obtain a 10 mg/ml stock that was stored at −20° C. This stock was diluted further in water to obtain a 1 mg/ml working stock solution that was used in the experiments and was prepared fresh each time. A 0.1 mg/ml sample of Gp10 in PBS was incubated with peptidoglycan at a final concentration of 0.1 mg/ml for 30 min at room temperature with occasional stirring. Then, the peptidoglycan was separated from the protein solution by centrifugation (15 min at 18 000 g at 4° C.), an aliquot of the supernatant was mixed with the SDS-sample buffer and analyzed by SDS-PAGE.

T1 sequence (Q05285 other isoform, or with tags, fused parts or gaps T32I/I224V): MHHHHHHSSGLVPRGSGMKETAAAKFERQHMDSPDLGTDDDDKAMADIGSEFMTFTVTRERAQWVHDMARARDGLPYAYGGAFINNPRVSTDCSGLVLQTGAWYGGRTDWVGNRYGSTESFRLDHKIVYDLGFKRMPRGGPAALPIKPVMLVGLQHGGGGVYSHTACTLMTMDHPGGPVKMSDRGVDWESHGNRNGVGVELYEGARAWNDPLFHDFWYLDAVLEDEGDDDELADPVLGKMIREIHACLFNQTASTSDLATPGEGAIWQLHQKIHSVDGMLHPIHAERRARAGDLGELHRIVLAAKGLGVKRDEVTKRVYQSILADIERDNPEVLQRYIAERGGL

B1: Gp6: recombinant His-tagged minor tail protein Gp6 of mycobacteriophage L5 (SEQ ID NO: 1) (protein)
chain: MHHHHHHSSGLVPRGSGMKETAAAKFERQHMDSPDLGTDDDDKAMADIGSEFMADLGNPLDLEMLCLVTGRDFRWTIDYPWGPGELFLELETGGEHNALHQVYVTGATGGTYTLNVNGTNTPAIDYNDVSENPQGLAGDIQDALDAAVGAGNAVVHPVSLFPAWTLNFNLNASKPLTEQLVNTINKAANDFFDTFDQLLGVDVEMTVTDTLNFKLKVTSRRSFDEVGVVTFAVDVTSQAVINFFNSVAELTGAVNTVNVDFYWNRTYDIEFTGSLGLQPIPATTADITNLAGTSKAVSVTVVEPGKKRLTIWPFTVNGETATIKVESEEADKIPNRCRWQLVHMPTGEAAGGDAKQLGRVYRQPR
modifications: His6 tag
[1]; listed as Gp 6
  capture/binding of MAP cells (in words): did not capture any MAP cells
[1]; listed as Gp-6
  capture/binding of MAP cells (in words): not showing any bacterial capture
[2]
  Capture efficiency of M. smegmatis cells: 31.3±1.5×10^−3 cells/μm^2
  bacterial capture: 31.3×10^−3 /μm^2
  capture/binding of M. smegmatis cells (in words): M. smegmatis specific; also recorded: bind only M. smegmatis cells
E. coli
  bacterial capture of non-host bacteria (in words): no bacterial capture
S. Typhimurium
  bacterial capture of non-host bacteria (in words): no bacterial capture
M. marinum cells
  capture of M. marinum cells (in words): Neither of the two proteins was able to capture; also recorded: Neither Gp6 nor Gp10 was able to serve as a capturing agent
[3]
  bacterial capture of non-host bacteria (in words): no bacterial capture

B2: Gp10: recombinant His-tagged lysin Gp10 of mycobacteriophage L5 (SEQ ID NO: 3) (protein)
chain: MHHHHHHSSGLVPRGSGMKETAAAKFERQHMDSPDLGTDDDDKAMADIGSEFMTFTVTRERAQWVHDMARARDGLPYAYGGAFTNNPRVSTDCSGLVLQTGAWYGGRTDWVGNRYGSTESFRLDHKIVYDLGFKRMPRGGPAALPIKPVMLVGLQHGGGGVYSHTACTLMTMDHPGGPVKMSDRGVDWESHGNRNGVGVELYEGARAWNDPLFHDFWYLDAVLEDEGDDDELADPVLGKMIREIHACLFNQTASTSDLATPGEGAIWQLHQKIHSIDGMLHPIHAERRARAGDLGELHRIVLAAKGLGVKRDEVTKRVYQSILADIERDNPEVLQRYIAERGGL
modifications: His6 tag
[1]; gold surface, 20 μg/ml of RBP, MAP ATCC 19851
  bacterial capture: 12.3×10^−3 /μm^2
[1]
  capture/binding of MAP cells (in words): able to bind; also recorded: specifically bind
[2]
  Capture efficiency of M. smegmatis cells: 28.7±1.18×10^−3 cells/μm^2
  bacterial capture: 28.7×10^−3 /μm^2
  capture/binding of M. smegmatis cells (in words): able to bind; also recorded: specifically bind
E. coli
  bacterial capture of non-host bacteria (in words): no bacterial capture
S. Typhimurium
  bacterial capture of non-host bacteria (in words): no bacterial capture
[4]; Gp10 purified from the soluble fraction, 0.1 mg/ml Gp10, 0.1 mg/ml peptidoglycan, 30 min, SDS-PAGE of supernatant
  peptidoglycan binding (in words): selectively remove recombinant Gp10 from the solution
[4]; refolded sample of Gp10 after 8 M urea extraction
  peptidoglycan binding (in words): retained the ability to bind peptidoglycan
M. marinum cells
  capture of M. marinum cells (in words): Neither of the two proteins was able to capture; also recorded: Neither Gp6 nor Gp10 was able to serve as a capturing agent
[3]
  bacterial capture of non-host bacteria (in words): no bacterial capture
